In patent US12448462 (dated 2025) one finds EC50 data, which are given here for two molecules.

By EC50 is commonly meant the concentration needed to bring the measured effect to its halfway point.

The experiment has as its target T1, MUC1 (human, UniProt P15941 1039-1148).
T1 chain: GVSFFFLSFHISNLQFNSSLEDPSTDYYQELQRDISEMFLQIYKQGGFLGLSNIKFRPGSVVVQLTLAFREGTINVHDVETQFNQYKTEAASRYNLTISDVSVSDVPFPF
Briefly: flow.

B1: anti-Muc1 T4E3 Fab (Fab, V domains shown)
VH: QVQLVQSGGGLVQPGGSLRLSCAASGFTFDDYAMHWVRQAPGKGLEWVSGISWNSGSIGYADSVKGRFTISRDNAKNSLYLQMNSLRAEDTALYYCAKDIGSGSYYNYYYGMDVWGQGTTATISS
VL: SSELTQDPAVSVALGQTVRITCQGDSLRSYYASWYQQKPGQAPVLVIYGKNSRPSGIPDRFSGSNSGSTASLTITGAQAEDEADYYCNSRDRYGNSLVIFGGGTKLTVL
Molecule B1 returned an EC50 of 16 nM.

B2: T4E3 scFv (scFv, V domains shown)
VH: QVQLVQSGGGLVQPGGSLRLSCAASGFTFDDYAMHWVRQAPGKGLEWVSGISWNSGSIGYADSVKGRFTISRDNAKNSLYLQMNSLRAEDTALYYCAKDIGSGSYYNYYYGMDVWGQGTTATISS
VL: SSELTQDPAVSVALGQTVRITCQGDSLRSYYASWYQQKPGQAPVLVIYGKNSRPSGIPDRFSGSNSGSTASLTITGAQAEDEADYYCNSRDRYGNSLVIFGGGTKLTVL
B2 returned a concentration giving a half-maximal response (EC50) of 7.48 nM.
